Results reported in publication PMC9214244, “Multivalent Interaction of Beta-Catenin With its Intrinsically Disordered Binding Partner Adenomatous Polyposis Coli” (Frontiers in Molecular Biosciences, 2022).

What was measured:
[1] = molecular target: APCabc, third 20aa repeat (R3) region of APC with subdomains a, b and c, fluorescein-labelled at Cys 1501 (UniProt P25054); test: fluorescence polarisation; fluorescence anisotropy; β-catenin titrated into 10 nM fluorescein-labelled APC construct; PBS, 1 mM DTT; 15°C; adjusted anisotropy fitted to a Hill equation
[2] = molecular target: pAPCabc with the flexible linker (FL) inserted between residues 1,500 and 1,501, fluorescein-labelled at Cys 1501 (UniProt P25054); test: as above
[3] = molecular target: APCabc, third 20aa repeat (R3) region of APC with subdomains a, b and c, fluorescein-labelled at Cys 1501 (UniProt P25054); test: stopped-flow fluorescence; association: 25 nM fluorescein-labelled APC mixed 1:1 by volume with 250-2,000 nM β-catenin (pseudo first-order); dissociation: pre-formed 1:1 complex (200 nM) mixed with 10 times molar excess of the same APC construct; PBS, 1 mM DTT; 15°C
[4] = molecular target: pAPCabc with the flexible linker (FL) inserted between residues 1,500 and 1,501, fluorescein-labelled at Cys 1501 (UniProt P25054); test: as above
[5] = molecular target: pAPCabc, full-length R3 domain APCabc containing all five phosphomimetics, fluorescein-labelled at Cys 1501 (UniProt P25054); test: as above
[6] = molecular target: pAPCabc with the polyproline linker (PP) inserted between residues 1,500 and 1,501, fluorescein-labelled at Cys 1501 (UniProt P25054); test: as above
[7] = molecular target: APCabc with the rigid linker (RL) inserted between residues 1,500 and 1,501, fluorescein-labelled at Cys 1501 (UniProt P25054); test: as above
[8] = molecular target: APCabc with the flexible linker (FL) inserted between residues 1,500 and 1,501, fluorescein-labelled at Cys 1501 (UniProt P25054); test: as above
[9] = molecular target: APCbc, APC R3 subdomains b and c (residues 1,483–1,533), fluorescein-labelled at Cys 1501 (UniProt P25054); test: as above
[10] = molecular target: pAPCabc with the rigid linker (RL) inserted between residues 1,500 and 1,501, fluorescein-labelled at Cys 1501 (UniProt P25054); test: as above
[11] = molecular target: APCabc with the flexible linker (FL) inserted between residues 1,478 and 1,479, fluorescein-labelled at Cys 1501 (UniProt P25054); test: as above
[12] = molecular target: pAPCabc D1486S, fluorescein-labelled at Cys 1501 (UniProt P25054); test: as above
[13] = molecular target: pAPCabc D1486S, fluorescein-labelled at Cys 1501 (UniProt P25054); test: fluorescence polarisation; fluorescence anisotropy; β-catenin titrated into 10 nM fluorescein-labelled APC construct; PBS, 1 mM DTT; 15°C; adjusted anisotropy fitted to a Hill equation

armadillo (ARM) repeat domain of human β-catenin (residues 134–671), sequence (P35222 other isoform, or with tags, fused parts or gaps): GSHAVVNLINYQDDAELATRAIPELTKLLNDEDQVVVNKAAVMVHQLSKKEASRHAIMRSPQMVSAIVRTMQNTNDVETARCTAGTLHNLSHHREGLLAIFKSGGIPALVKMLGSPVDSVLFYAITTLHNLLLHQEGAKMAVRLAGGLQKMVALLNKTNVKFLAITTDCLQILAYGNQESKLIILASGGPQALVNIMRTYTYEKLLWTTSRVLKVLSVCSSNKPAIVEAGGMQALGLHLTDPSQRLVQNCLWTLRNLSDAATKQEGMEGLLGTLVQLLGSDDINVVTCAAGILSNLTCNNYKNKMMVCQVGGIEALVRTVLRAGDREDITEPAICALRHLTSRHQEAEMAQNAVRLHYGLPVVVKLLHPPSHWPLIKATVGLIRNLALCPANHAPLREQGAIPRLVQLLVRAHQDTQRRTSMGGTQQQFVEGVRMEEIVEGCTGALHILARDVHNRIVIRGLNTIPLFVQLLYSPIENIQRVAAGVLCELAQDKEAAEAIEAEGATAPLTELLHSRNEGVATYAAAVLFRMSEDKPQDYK

Substance: armadillo (ARM) repeat domain of human β-catenin (residues 134–671) (from UniProt P35222 134-671) (domain or fragment)
- Kd [1]: 16.5 nM
- Kd [2]: 10.9 nM
- koff fast [3]: 0.46 s⁻¹
- koff slow [3]: 0.11 s⁻¹
- kon [3]: 4.92e+07 M⁻¹ s⁻¹
- time constant τ (from the fast off-rate) [3]: 1.54 s
- koff fast [4]: 0.16 s⁻¹
- koff slow [4]: 0.0085 s⁻¹
- kon [4]: 1.01e+08 M⁻¹ s⁻¹
- time constant τ (from the fast off-rate) [4]: 4.45 s
- koff fast [5]: 0.07 s⁻¹
- koff slow [5]: 0.0021 s⁻¹
- kon [5]: 2.07e+08 M⁻¹ s⁻¹
- time constant τ (from the fast off-rate) [5]: 9.51 s
- koff fast [6]: 0.44 s⁻¹
- koff slow [6]: 0.018 s⁻¹
- kon [6]: 8.97e+07 M⁻¹ s⁻¹
- time constant τ (from the fast off-rate) [6]: 1.59 s
- koff fast [7]: 0.89 s⁻¹
- koff slow [7]: 0.223 s⁻¹
- kon [7]: 1.81e+07 M⁻¹ s⁻¹
- time constant τ (from the fast off-rate) [7]: 0.8 s
- koff fast [8]: 0.45 s⁻¹
- koff slow [8]: 0.1 s⁻¹
- kon [8]: 2.41e+07 M⁻¹ s⁻¹
- time constant τ (from the fast off-rate) [8]: 1.54 s
- koff fast [9]: 0.73 s⁻¹
- kon [9]: 1.48e+07 M⁻¹ s⁻¹
- time constant τ (from the fast off-rate) [9]: 0.96 s
- koff fast [10]: 0.21 s⁻¹
- koff slow [10]: 0.0122 s⁻¹
- kon [10]: 1.02e+08 M⁻¹ s⁻¹
- time constant τ (from the fast off-rate) [10]: 3.52 s
- koff fast [11]: 0.77 s⁻¹
- koff slow [11]: 0.177 s⁻¹
- kon [11]: 8.35e+07 M⁻¹ s⁻¹
- time constant τ (from the fast off-rate) [11]: 0.9 s
- koff fast [12]: 2.89 s⁻¹
- koff slow [12]: 0.4 s⁻¹
- kon [12]: 1.51e+08 M⁻¹ s⁻¹
- time constant τ (from the fast off-rate) [12]: 0.24 s
- Kd [13]: 30 nM
